Data taken from patent publication US20140341881A1.

How the values were obtained:
[1] = molecular target: human neutrophil elastase (HNE) (human) (UniProt P08246); assay: cell-based or functional assay
[2] = molecular target: human plasma kallikrein (PK) (human) (UniProt P03952); assay: cell-based or functional assay
human plasma kallikrein (PK) (human), sequence (P03952 20-638 limits assumed): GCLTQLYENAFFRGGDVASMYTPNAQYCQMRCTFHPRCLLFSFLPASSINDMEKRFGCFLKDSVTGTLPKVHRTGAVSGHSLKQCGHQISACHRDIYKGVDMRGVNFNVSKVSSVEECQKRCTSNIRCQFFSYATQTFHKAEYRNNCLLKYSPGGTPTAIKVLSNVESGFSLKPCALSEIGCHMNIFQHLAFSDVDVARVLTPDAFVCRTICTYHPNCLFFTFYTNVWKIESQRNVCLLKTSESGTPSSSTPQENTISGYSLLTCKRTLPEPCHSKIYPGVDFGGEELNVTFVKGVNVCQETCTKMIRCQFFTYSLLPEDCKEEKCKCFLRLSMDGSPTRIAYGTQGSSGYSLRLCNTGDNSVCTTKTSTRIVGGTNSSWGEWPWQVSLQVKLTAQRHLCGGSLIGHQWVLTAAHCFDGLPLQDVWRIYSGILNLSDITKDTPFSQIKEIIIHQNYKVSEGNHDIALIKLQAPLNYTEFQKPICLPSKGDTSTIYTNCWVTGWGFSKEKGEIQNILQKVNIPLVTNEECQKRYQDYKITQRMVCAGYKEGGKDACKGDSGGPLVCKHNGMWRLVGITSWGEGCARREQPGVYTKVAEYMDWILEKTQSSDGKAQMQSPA

human neutrophil elastase (HNE) (human), sequence (P08246 30-247 limits assumed): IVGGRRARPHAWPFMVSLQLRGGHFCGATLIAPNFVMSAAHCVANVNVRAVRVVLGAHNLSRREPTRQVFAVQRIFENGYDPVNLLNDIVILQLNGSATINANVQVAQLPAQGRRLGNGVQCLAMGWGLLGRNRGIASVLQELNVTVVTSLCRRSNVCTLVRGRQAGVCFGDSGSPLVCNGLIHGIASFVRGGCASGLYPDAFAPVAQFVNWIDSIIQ

For “rACTWT (recombinant wild type alpha-1-antichymotrypsin) (from UniProt P01011 24-423)”, which % Inhibition [1] is on record?
The % Inhibition was 26%.

And the INHIBITION % [1]?
The INHIBITION % was 15%.

What about the Percentage inhibition [1] of the same substance?
Its Percentage inhibition is 16%.

And the % Inhibition [2]?
Its % Inhibition is 46%.

And the INHIBITION % [2]?
Its INHIBITION % is 0%.

And the Percentage inhibition [2]?
The Percentage inhibition was 46%.
